Where two headings read alike, the source gives them in different places.
Substance: GCH1 (GTP cyclohydrolase I): S81D phosphomimetic
- other (phosphorylation at S81): increases

Substance: LDHA (lactate dehydrogenase A): C163A
- enzymatic_activity (other: S-nitrosylation at C163): decreases

Substance: LDHA (lactate dehydrogenase A): C163A/C293A (2C-A)
- localisation_or_trafficking (other: S-nitrosylation at C163): decreases
- localisation_or_trafficking (other: S-nitrosylation at C293): decreases

Substance: LDHA (lactate dehydrogenase A): C293A
- enzymatic_activity (other: S-nitrosylation at C293): decreases

Reference: article PMC11148139
